Data published in patent US20240270857A1 (CHIA TAI TIANQING PHARMACEUTICAL GROUP, published 2024).
Like-named read-outs stand apart in the source and are kept apart here.

Assays:
[1] = target: T1, IL-36R naturally expressed on OVCAR8 cells and on normal human epidermal keratinocytes (NHK cells) (human, UniProt Q9HB29 20-575); experiment: cell-based or functional assay
T1 sequence (looked up): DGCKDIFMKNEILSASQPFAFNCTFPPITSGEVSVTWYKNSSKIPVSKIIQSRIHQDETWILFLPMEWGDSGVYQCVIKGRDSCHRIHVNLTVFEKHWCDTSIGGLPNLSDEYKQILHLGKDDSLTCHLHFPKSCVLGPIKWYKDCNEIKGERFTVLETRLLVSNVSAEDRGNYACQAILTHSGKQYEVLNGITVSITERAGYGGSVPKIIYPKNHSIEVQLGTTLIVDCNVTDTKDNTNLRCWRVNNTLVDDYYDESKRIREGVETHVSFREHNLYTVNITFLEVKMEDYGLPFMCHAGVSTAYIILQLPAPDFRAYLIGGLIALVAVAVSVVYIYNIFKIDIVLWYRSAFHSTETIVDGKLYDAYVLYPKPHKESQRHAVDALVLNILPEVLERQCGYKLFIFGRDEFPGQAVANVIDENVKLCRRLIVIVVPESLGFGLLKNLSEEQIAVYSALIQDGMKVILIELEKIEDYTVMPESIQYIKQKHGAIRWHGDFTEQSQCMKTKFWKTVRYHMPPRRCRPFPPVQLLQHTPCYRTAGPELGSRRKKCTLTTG

[2] = target: T1, IL-36R naturally expressed on OVCAR8 …; experiment: cell-based or functional assay; remark: listed apart in the source
[3] = target: T2, cynomolgus IL-36R overexpressed on 293T-CynoIL36R-NFκB cells (cynomolgus monkey); experiment: FACS on 293T-CynoIL36R-NFκB cells, ratio of MFI to background MFI
T2 construct: Entry includes the signal peptide; also called monkey IL-36R
T2 chain: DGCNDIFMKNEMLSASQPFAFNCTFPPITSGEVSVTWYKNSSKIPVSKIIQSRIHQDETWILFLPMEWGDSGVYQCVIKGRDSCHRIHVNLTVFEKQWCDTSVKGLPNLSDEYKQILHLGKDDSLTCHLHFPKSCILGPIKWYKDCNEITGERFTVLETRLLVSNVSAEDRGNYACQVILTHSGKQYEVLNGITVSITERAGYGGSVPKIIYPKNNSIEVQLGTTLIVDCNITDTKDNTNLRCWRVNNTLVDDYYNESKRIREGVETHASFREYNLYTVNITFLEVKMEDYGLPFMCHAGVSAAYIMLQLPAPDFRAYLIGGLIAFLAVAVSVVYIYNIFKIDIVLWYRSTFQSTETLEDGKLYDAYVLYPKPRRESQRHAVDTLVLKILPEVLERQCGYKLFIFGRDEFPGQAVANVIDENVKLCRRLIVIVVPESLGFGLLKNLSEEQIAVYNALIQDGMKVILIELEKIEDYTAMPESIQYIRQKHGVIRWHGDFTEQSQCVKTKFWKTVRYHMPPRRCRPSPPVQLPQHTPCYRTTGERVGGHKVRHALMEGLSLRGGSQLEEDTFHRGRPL
Protocol: After the cells was washed with PBS, the cells were resuspended with 100 μL of PBS and then the fluorescence signal was detected using a flow cytometer (BD, Accuri C6). […] The ratio was the ratio of mean fluorescence intensity (MFI) of the experimental group/the background MFI, and the resulting data were analyzed using GraphPad Prism.
Affinity, binding and blocking assays for humanized antibodies hz72C1-1.1, hz72C1-1.2, hz72C1-1.3, hz72C1-2.1, hz72C1-2.2 and hz72C1-2.3 as well as hz84C4-1.1, hz84C4-1.2, hz84C4-1.3, hz84C4-1.4, hz84C4-1.5, hz84C4-2.1, hz84C4-2.2, hz84C4-2.3, hz84C4-2.4 and hz84C4-2.5 were performed according to the methods of Example 4, Example 5. Example 6, Example 7 and Example 8.

[4] = target: T1, IL-36R naturally expressed on OVCAR8 …; experiment: cell-based or functional assay; remark: listed apart in the source
[5] = target: T1, IL-36R naturally expressed on OVCAR8 …; experiment: cell-based or functional assay; remark: listed apart in the source

- IC50 (M); hIL36α; IL-8 production [1]: 1.6e-11 M
- IC50 (M); hIL36αβγ; IL-8 production [1]: 1.42e-11 M
- IC50 (M); hIL36β; IL-8 production [1]: 2.45e-11 M
- IC50 (M); hIL36γ; IL-8 production [1]: 8.12e-12 M
- Maximum inhibition rate %; hIL36α; IL-8 production [1]: 99.6%
- Maximum inhibition rate %; hIL36αβγ; IL-8 production [1]: 99.9%
- Maximum inhibition rate %; hIL36β; IL-8 production [1]: 99.1%
- Maximum inhibition rate %; hIL36γ; IL-8 production [1]: 100%
- IC50 (M); hIL36α; IL-8 production [2]: 4.34e-11 M
- IC50 (M); hIL36αβγ; IL-8 production [2]: 4.88e-11 M
- IC50 (M); hIL36β; IL-8 production [2]: 1.57e-11 M
- IC50 (M); hIL36γ; IL-8 production [2]: 1.42e-11 M
- Maximum inhibition rate %; hIL36α; IL-8 production [2]: 99.8%
- Maximum inhibition rate %; hIL36αβγ; IL-8 production [2]: 99.9%
- Maximum inhibition rate %; hIL36β; IL-8 production [2]: 99.7%
- Maximum inhibition rate %; hIL36γ; IL-8 production [2]: 99.7%
- EC50 [3]: 7.64 nM
- IC50 (M); hIL36α; IL-8 production [4]: 1.26e-10 M
- IC50 (M); hIL36αβγ; IL-8 production [4]: 1.98e-10 M
- IC50 (M); hIL36β; IL-8 production [4]: 3.03e-10 M
- IC50 (M); hIL36γ; IL-8 production [4]: 4.42e-11 M
- Maximum inhibition rate %; hIL36α; IL-8 production [4]: 106%
- Maximum inhibition rate %; hIL36αβγ; IL-8 production [4]: 98.9%
- Maximum inhibition rate %; hIL36β; IL-8 production [4]: 101%
- Maximum inhibition rate %; hIL36γ; IL-8 production [4]: 105%
- IC50 (M); hIL36α; IL-8 production [5]: 6.33e-11 M
- IC50 (M); hIL36αβγ; IL-8 production [5]: 7.27e-11 M
- IC50 (M); hIL36β; IL-8 production [5]: 3.29e-11 M
- IC50 (M); hIL36γ; IL-8 production [5]: 2.63e-11 M
- Maximum inhibition rate %; hIL36α; IL-8 production [5]: 101%
- Maximum inhibition rate %; hIL36αβγ; IL-8 production [5]: 90.7%
- Maximum inhibition rate %; hIL36β; IL-8 production [5]: 97.1%
- Maximum inhibition rate %; hIL36γ; IL-8 production [5]: 107%
B1: BI655130 (antibody, human IgG1, kappa, L234A L235A)
heavy: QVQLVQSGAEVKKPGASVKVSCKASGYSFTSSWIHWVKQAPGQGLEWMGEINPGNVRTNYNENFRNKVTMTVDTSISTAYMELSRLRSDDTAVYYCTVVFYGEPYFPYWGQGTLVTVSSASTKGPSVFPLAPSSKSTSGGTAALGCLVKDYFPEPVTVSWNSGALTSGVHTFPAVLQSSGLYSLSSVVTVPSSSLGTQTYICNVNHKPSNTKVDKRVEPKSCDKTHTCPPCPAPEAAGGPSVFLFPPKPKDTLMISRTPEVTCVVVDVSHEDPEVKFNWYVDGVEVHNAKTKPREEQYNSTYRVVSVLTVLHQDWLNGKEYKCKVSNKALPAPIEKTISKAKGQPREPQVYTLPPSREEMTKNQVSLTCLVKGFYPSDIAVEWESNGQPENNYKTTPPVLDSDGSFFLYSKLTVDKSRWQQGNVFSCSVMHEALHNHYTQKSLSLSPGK
light: QIVLTQSPGTLSLSPGERATMTCTASSSVSSSYFHWYQQKPGQAPRLWIYRTSRLASGVPDRFSGSGSGTDFTLTISRLEPEDAATYYCHQFHRSPLTFGAGTKLEIKRTVAAPSVFIFPPSDEQLKSGTASVVCLLNNFYPREAKVQWKVDNALQSGNSQESVTEQDSKDSTYSLSSTLTLSKADYEKHKVYACEVTHQGLSSPVTKSFNRGEC
notes: also called Spesolimab
